Molecular target: FN3 monobody 2C12 (binder of MAP2K5), purified FLAG-tagged protein
Experiment: pull-down; 1 pmol each of four purified biotinylated targets spiked into HeLa cell lysate (10 µg), 10 pmol purified FLAG-tagged monobody, 2 h 4 °C; captured on anti-FLAG magnetic beads, RIPA washes; blot probed with streptavidin-IR dye

B1: mitogen-activated protein kinase kinase 5 (MAP2K5), amino acids 5-108 (domain or fragment)
chain: ALGPFPAMENQVLVIRIKIPNSGAVDWTVHSGPQLLFRDVLDVIGQVLPEATTTAFEYEDEDGDRITVRSDEEMKAMLSYYYSTVMEQQVNGQLIEPLQIFPRA
modifications: biotin (Avitag, in vivo); a non-biotinylated form served as soluble competitor
A percent of input pulled down of 33% was found for B1 in this work.
